Laboratory results as given in the DeepSol protein solubility set.

Assay: soluble on expression in E. coli; label from the status in PepcDB or PDB records

Row | Sequence | soluble on expression in E. coli
1 | SLMLHAQHMPGQPGTPSLVFLHGFSGDCHEWQPVGEQFHGCSRLYIDLPGHGGSAAIPVDGFADVIRLLRATLISYNILKFWLVGYSLGGRVAMMAACQGIPGLCGLVVEGGHPGLQNEQARAERRLSDGRWAERFRHEPLTEVFHDWYQQPVFASLTAQQRQALTALRSQNNGETLAAMLEATSLAVQPDLREALNALAFPFYYLCGERDSKFRALAQEVAATCHVIRNAGHNAHRENPAGVVDSLAQILRL | soluble
2 | SLNEVQQAVDMQRRQLLQRLGKDFDPSMLDDKLLKEAALKGLIERTLLLQAAKDDKFAFSDQALDQLILQTPEFQVDGKFNADRFDQVIRQMNYSRMQFRQMLGQEMLIGQLRAGLAGTGFVTDNELQSFARLEKQTRDFATLAIKADASKSSVSDDEVKAFYEGHKSEFMTPEQVVVEYVELKKSSFFDQVKVKQEDLEALYQKEIANLSEQRDAAHILIEVNDKVGDEQAKAKIDEIKARLAKGEDFAALAKEFSQDIGSAATGGDLGYAGRGVYDPAFEEALYALKQGEVSAPVKTPYGYHLIKLLGVQAPEVPSLESLKPKLEDELKKQMVEQRFVEATKDLESSAYEAADLSQPAQEMGLKVQTSQPFGRSGGDGIAANRQIVQTAFSAEVLEEAANSGAIELDPDTVVVLRVKEHNKPKEQPLEQVAANIRERLAAEKAAEEAQKRGEALIAELREGRTSSAAGESWKVVEAASRGHEGVDPKLLQAVFRMQRPEAKDKPSFSGVTLANGDYVVIRLNGVSEPEEAISDDEKAMYRRFLASRSGQADFAAFRRQLQD | not soluble
3 | SLNSVKRVGGSNRYGTAVQISKQMYSTASTAVIVGGSSYADAISAAPLAYQKNAPLLYTNSDKLSYETKTRLKEMQTKNVIIVGGTPAVSSNTANQIKSLGIS | not soluble
4 | SLPEKVLVAGNNVRNVAESASKAGFEVFAITKFVDADLRIYCREVERVDDSLPEKEIAKKIEDKAEEIDAKVVLCSGFETLRVRGELLCNPYGKVERVANKLKFYRELEKAGLPFPELLGEGERGIIKPVVGGGGEEVVMGEEVPKGFLKQRFVSGTPCSVSVIANGERALPLACNLIYAGWKEMNASGFRYSGNMTPFIVEEEIRKELERLAVEAVELFGLAGSVGVDFVLAEKPYILEINPRFQGSLDSVEWSCDVNLFKMHAEAFDGRLPERVRPRRYALRAILFSPRDVEIKENLAGNPFYADVPGKGERYGKNDPLVSILAAGKSREDVERRVLERRDLFLSLA | not soluble
5 | SLPLQQYRDFIDNQMLLLVAQRDRASRIFPHLYLGSEWNAANLEELQRNRVTHILNMAREIDNFYPERFTYHNVRLWDEESAQLLPHWKETHRFIEAARAQGTHVLVHCKMGVSRSAATVLAYAMKQYECSLEQALRHVQELRPIARPNPGFLRQLQIYQGILTART | not soluble
6 | SLPLTMTVLILLLLPTGQAAPKDGVTRPDSEVQHQLLPNPFQPGQEQLGLLQSYLKGLGRTEVQLEHLSREQVLLYLFALHDYDQSGQLDGLELLSMLTAALAPGAANSPTTNPVILIVDKVLETQDLNGDGLMTPAELINFPGVALRHVEPGEPLAPSPQEPQAVGRQSLLAKSPLRQETQEAPGPREEAKGQVEARRESLDPVQEPGGQAEADGDVPGPRGEAEGQAEAKGDAPGPRGEAGGQAEAEGDAPGPRGEAGGQAEARENGEEAKELPGETLESKNTQNDFEVHIVQVENDEI | soluble
7 | SLPSINALLQAEVLSRQITSPVSGINGDIRAKKIASIADVCESMKEQLLVLVEWAKYIPAFCELPLDDQVALLRAHAGEHLLLGATKRSMVFKDVLLLGNDYIVPRHCPELAEMSRVSIRILDELVLPFQELQIDDNEYAYLKAIIFFDPDAKGLSDPGKIKRLRSQVQVSLEDYINDRQYDSRGRFGELLLLLPTLQSITWQMIEQIQFIKLFGMAKIDNLLQEMLLGG | soluble
8 | SLQTEESICTKIMKELHSEDSPNALVIKNEHVKKCDTWPSGGEMVVKDLTVKYVDDGNAILENISFSISPGQRVGLLGRTGSGKSTLLSAFLRMLNIKGEIQIDGVSWNSMTLQEWRKAFGVITQKVFIFSGTFRQNLDPNGKWRDEEIWKVADQVGLKSVIEQFPGQLNFTLVDGGYVLSHGHKQLMCLARSVLSKAKIILLDQPSANLDPITYQVIRRVLRQAFAGCTVVLCEHRIEAMLDCQRFLVIEQGNVWQYESLQALLSEKSVFQRALSSSEKMKLFHGRHSSKQKPRTQITAVKEETEEEVQETRL | not soluble
9 | SLQTLEKSVIGVRVAVEASPVGASRRAREGWRRPASRHEAGALPLPSEQHITFFKLRPGCLDFLRRVSQTFELYMYTMGTALHAATALRILDPKRRFFGRRVFSRQDAVNGLKAIERIFPHDQKMVLVVDDLECMWRYSPCCIKVQGYHYFADVSAADARRISPHSYTQWLSMARPFCNFLPSERIKLCRHVRRCLPSKDA | not soluble
10 | SLQVDASGHQILLNYRKERSLQEFVPQVSLTEVLTGKINANTVKNKIVLIGTTAESFEDYSFTPNITNQGAIRKYQVLSLQAQMISQLLSAALDGRSLIWAWSVWQETIWIWGWSLTGSLLAWYIR | not soluble
11 | SLRECELYVQKHNIQALLKDSIVQLCTARPERPMAFLREYFEKLEKEEAK | soluble
12 | SLRITAIREIAVPLQGNISNSLVSFAEHTVSLVALVSDVVRDGRPLIGYAFDSIGRYAQPGLMRERFIPRLLQAAPHELLDDGGQAFDPARASAIMLRNEKPGGHGDRAAAVGALELAFWDLNAKLRDEPAYCTIARHVGRPAQAGATQVYAAGGYYYDSGDPLQRLRDEFRGYLDQGFVKFKMKIGGASLADDLARIEAALGVAGEGANLAVDANGRFDLDTALAYARALEPYGLRWYEEIGDPLDYHLNSLVAQAYAGTIATGENLFSLPDVRNLLHFAGVRPGRDILQMDPGLSYGLTEYLRMMAAVEAAGFGRSCLHPHGGHLINLHIAAGLGLGGCEAYPGVFQPFGGYPAACALGAGQVRPTDAPGFGLEQKQELAPYISVLAHG | soluble
13 | SLSDPIIDMHLHASAADEQGPPPLAMCAPINPMPTWDQRQPWTTGLIAMFKAPKCADPIWSPTTDDEIRDKTLAIMAKRNIIGVVSGPYKRVMAWRALAPDRVLPGLMPTMSDLSKPKVLLDDFGKAKAAGQLAVIGELGFQYEGIAPNDPRLENLWAAAEAADVPVAIHIGPGPPGVAYLPGGGYRARMSSPLLLEDVLVKHPKLRINVMHAGYPMLDDTLALLYAHPQVYVDTGVIVYSQPRPAFYRYLQTLVDAGFGERVMFGSDQMVWPETIERSIAVIDEAPFLSAQQKRDILYNNAARFLRLDEATQAKHRAM | soluble
14 | SLSIKTILIDDEPKAIAILKNKIERLCPDLEIVATIEKPALAFDIINELQPQLVFIDIAMPGMSGFDVLEQFKKPQFEIIFATAFDQYALDAIKQCAIGYLVKPIDNEDLVEAVTNATTNIEQKNALVKNTQLLENINQENFHKKKIVIPSTDGLEFVKVKSITHCEGVDGYTKIHFTNRKPILSSSSIGHFKKLLSHPDFYHVHKSYVTNTNHIIKYLNDGYVTLTGDVTIPVARAKRAEFLEKFRNEG | not soluble
15 | SLSYTISRPINQLMLAMQKAESGDLTSRYEGEEQDEVGRLGRSFNTMIEQIGKLISLTERQERKKREAELHSLQANIKPHFLYNTLDTIQWMARKKNASDVADLVGALSKLFRIGLSKGGTIIPLVDEIEHIKNYLQIQSVRYKNKLNYSLVMPSNMERLSILKIVLQPIVENAIYHGIKERRGPGLITIEAERENDMLIIRIRDNGKGIKPETLQQLRTNVNLFLEKGDKEGGQRLTKGYGLINVHARLRLTFGEPYGVKIDSVFNEGTVVTIFHPILEGGVETKRA | soluble
16 | SLTITVLQGGNVLDLERGVLLEHHHVVIDGERIVEVTDRPVDLPNAQAIDVRGKTVMPGFIDCHVHVLASNANLGVNATQPNILAAIRSLPILDAMLSRGFTSVRDAGGADWSLMQAVETGLVSGPRIFPSGKALSQTGGHGDFRPRGDLLEPCSCCFRTGAIARVVDGVEGVRLAVREEIQKGATQIKIMASGGVASPTDPIANTQYSEDEIRAIVDEAEAANTYVMAHAYTGRAIARAVRCGVRTIEHGNLVDEAAAKLMHEHGAFVVPTLVTYDALAKHGAEFGMPPESVAKVASVQQKGRESLEIYANAGVKMGFGSDLLGEMHAFQSGEFRIRAEVLGNLEALRSATTVAAEIVNMQGQLGVIAVGAIADLVVLDGNPLEDIGVVADEGARVEYVLQRGTLVKRQAGGR | not soluble
17 | SLTTLTVRVFTTAEIIYRKTVIALVCHLNCSRQETVTMNKTITALAIMMASFAANASVLPETPVPFKSGTGAIDNDTVYIGLGSAGTAWYKLDTQAKDKKWTALAAFPGGPRDQATSAFIDGNLYVFGGIGKNSEGLTQVFNDVHKYNPKTNSWVKLMSHAPMGMAGHVTFVHNGKAYVTGGVNQNIFNGYFEDLNEAGKDSTAIDKINAHYFDKKAEDYFFNKFLLSFDPSTQQWSYAGESPWYGTAGAAVVNKGDKTWLINGEAKPGLRTDAVFELDFTGNNLKWNKLAPVSSPDGVAGGFAGISNDSLIFAGGAGFKGSRENYQNGKNYAHEGLKKSYSTDIHLWHNGKWDKSGELSQGRAYGVSLPWNNSLLIIGGETAGGKAVTDSVLITVKDNKVTVQN | not soluble
18 | SLVHKKIVVPSATDMATRFTQDSFVFDCLSMYYVIDDPWAENCLAAGVNATNVTFGTEQPWDIVLRDFDSGLEKIERSPYLALATNRQEIDAANKQGKLAVIIGTQGSAMVDLEFHRLRTMHRLGMRYFGLAYTGPTMFADGCGESRNAGLSFAGIELIDACNDLGLILDLSHVGHRSREEAVARSRFPVYTHSNSYALNPNDRNTTDETARAIRAKGGIMGICGLPKTVHPENATLNELLDHADHWVKTIDAAHVGFGLDFVEAYKSDRSTMPAASRLWRTRRPDIFGTVEEFHLQDYPLGIASIKQLPNLTQGLFDRGYAEKEVAGIIGGNWLRHFTEVYG | soluble
19 | SLVSAQRAIIDPEGKVLINKVNFIDGGLKAPDEVVRKMVRMGTNIIGEPVCGLYPARLIALTSGYSARIPYTIDLDFWMQLLRLGKLWMIDEPLCAFRISNLSWSSRIGEMRHKQFLAFMEEVAADELFQINDLDLFIGRFNSAVQSMTSLMGFKLFAGSAAEKRVIAVQ | not soluble
20 | SLVSVRCAECKGKLLCGRSKCPLLEKYRFLKEIKIDSRILDPSPPSIFVGRVGYPKVYAGPLVSINADPVYADSPWLWKSIEEVIRLRTSMLRVSRRFRVEDVREEKKELTEMQEMTAAIKPVDVEAEIRKISRKAEFDDVMQPMGYSAIAESIKLAENPKIPDKVEKVYYDDMKAYEALSYLYNHGFSTYYLQKIFSAGILGERKSRKLVPTRWSITAVHSIVGEAIKREIAAYKPIDKTLLFNYEHFGNHFEVILSPENYFFQLVEIWQRKSFWSPKRTGLGLTART | soluble
21 | SMAENGDNEKMAALEAKICHQIEYYFGDFNLPRDKFLKEQIKLDEGWVPLEIMIKFNRLNRLTTDFNVIVEALSKSKAELMEISEDKTKIRRSPSKPLPEVTDEYKNDVKNRSVYIKGFPTDATLDDIKEWLEDKGQVLNIQMRRTLHKAFKGSIFVVFDSIESAKKFVETPGQKYKETDLLILFKDDYFAKKNE | soluble
22 | SMAGCVVIVGSGVIGRSWAMLFASGGFQVKLYDIEQQQIRNALENIRKEMKLLEQAGSLKGSLSVEEQLSLISGCPNIQEAVEGAMHIQECVPEDLELKKKIFAQLDSIIDDRVILSSSTSCLMPSKLFAGLVHVKQCIVAHPVNPPYYIPLVELVPHPETAPTTVDRTHALMKKIGQCPMRVQKEVAGFVLNRLQYAIISEAWRLVEEGIVSPSDLDLVMSEGLGMRYAFIGPLETMHLNAEGMLSYCDRYSEGIKHVLQTFGPIPEFSRATAEKVNQDMCMKVPDDPEHLAARRQWRDECLMRLAKLKSQV | soluble
